Measured values from the supplement of paper PMC6755084.

B1: minF1; a variant is named by its letters at N, in order (parent)
chain: GAGACCGCAACTGAAAAGTTGTTNNNNAANNNNGGNTNNATTTCTGCACGTAGAAGCAAAAGGC

Variants of: B1
Test: fraction ligated after 30 min (ligated reads / total reads); higher = more ligase activity
Conditions: with F1*subA RNA substrate (template-directed ligation), 42 °C
Method: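 Chip-synthesised pool of minF1 ligase ribozyme variants (single and double substitutions, single to quadruple deletions, bulge and P2 designed variants) was transcribed with T7 and reacted as a pool with excess substrate F1*subA for 30 min at 42 C in 50 mM EPPS pH 8.5, 25 mM MgCl2. Ligated and unligated RNAs were separated by PAGE, barcoded by RT and deep sequenced; fraction ligated = ligated reads / total reads, relative activity = FL / FL of wild-type minF1 (0.76); sequencing FL correlated with PAGE (R2 = 0.98). Sequences are the DNA template of the ribozyme.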

| Variant | fraction ligated |
| --- | --- |
| TCAGATGTGTA | 0.000796 |
| TCAGATTGTGA T23A | 0.00184 |
| ACAGATATGTG | 0.00478 |
| TGAAGATGTGA A28T A29G | 0.00314 |
| ACAGATGGGTT G34T T37G A40G | 0.00113 |
| AGAAGATGTGA A28T A29G | 0.00743 |
| TCAGTGGAGTT T23A G34T T37G | 0.00183 |
| AGAAGGTGTGA A29T | 0.0036 |
| ACAGTGAGTGA | 0.00274 |
| ACAGATGAGTT G34T T37G A40G | 0.00147 |
| ACAGATGATGA | 0.00115 |
| ACGATGATGTA | 0.00144 |
| ACGATGATGTG | 0.00517 |
| TCAGGGATTGA | 0.00138 |
| CGAAGGATGTA A29T | 0.00492 |
| TCAGATGAGTA T23A G34T | 0.00285 |
| TCAGGGATTGA A29T | 0.00182 |
| ACAGTGATTGA | 0.00326 |
| CGAAGGAGTGA T23A A29T | 0.00498 |
| TCGAGGATTGA A29T | 0.00979 |
| TCGATGATTGA | 0.00257 |
| TCAGTGGTGTA T23A | 0.00153 |
| TCAGGGATGTG A29T | 0.00266 |
| CGAAGGATTGA T23A A29T | 0.0076 |

| Variant | fraction ligated |
| --- | --- |
| ACGATGGGTGA | 0.00155 |
| TCAGATGGGTT G34T T37G | 0.00104 |
| TCAGATGGGTG T23A | 0.00293 |
| TCGAGATGTGA A28T A29G | 0.00721 |
| TCAGTGGTGTG T23A | 0.00413 |
| TGAAGGATGTA A29T | 0.00266 |
| TCGATGGTTGA T23A | 0.00216 |
| TCAGATGTGTA T23A | 0.00304 |
| TCAGGGTGTGA A29T | 0.00272 |
| AGAAGATGTGA T23C A29G | 0.00313 |
| AGAAGATGTGA T23C A29T | 0.00701 |
| TCAGATGAGTG T23A G34T | 0.00649 |
| ACGAGGATTGA | 0.00256 |
| ACAGTGGATGA | 0.00257 |
| AGAAGGATGTG T23C A29T | 0.00819 |
| TCAGATGGGTT G34A G35T T37G | 0.00107 |
| TCAGTGGAGTG T23A | 0.00892 |
| ACAGATTGTGA | 0.00539 |
| TCAGGGAGTGA T23A A29T | 0.000582 |
| TCAGGGTGTGA T23A A29T | 0.00472 |
| TCGAGATGTGA A29T | 0.00243 |
| TCGAGATGTGA A29G | 0.00245 |
| TCAGATGAGTT T23A G34T T37G A40G | 0.00258 |
| TCGAGGATTGA | 0.00327 |

| Variant | fraction ligated |
| --- | --- |
| TCAGATGGGTT G34A T37G | 0.00135 |
| ACAGATGAGTA G34T | 0.00197 |
| TCAGGGAGTGA A29T | 0.00242 |
| ACGATGAGTGA | 0.0021 |
| TCAGTGGAGTT G34T T37G | 0.00084 |
| ATAAGGATGTG | 0.00567 |
| ATAAGGATGTA | 0.00287 |
| ATAAGGATGTA A29T | 0.00345 |
| TCAGATGTTGA T23A | 0.00154 |
| ACAGGGATGTA A29T | 0.00654 |
| TCGATGGGTGA T23A | 0.000539 |
| ATAAGATGTGA | 0.00253 |
| TCGAGGATGTG A29T | 0.0133 |
| ATAAGGTGTGA A29T | 0.00316 |
| TCAGATGATGA | 0.00144 |
| TCGATGGAGTT G34T T37G | 0.00201 |
| TCGATGGAGTG | 0.0131 |
| TCGATGGAGTA | 0.00705 |
| TCAGTATGTGA T23A | 0.00284 |
| TCAGGGAGTGA | 0.00359 |
| ACAGATGAGTG | 0.00387 |
| ACAGATGAGTA | 0.00413 |
| ACGAGGATTGA A29T | 0.00766 |
| TCAGATGGGTT G34A G35T T37G A40G | 0.000594 |

| Variant | fraction ligated |
| --- | --- |
| TGAAGGTGTGA T23A A29T | 0.00263 |
| TCGAGGATTGA T23A A29T | 0.00747 |
| AGAAGGATGTA T23C A29T | 0.00442 |
| TCAGATGGGTT G34A T37G A40G | 0.00106 |
| ACAGTGGAGTA G34T | 0.0155 |
| ACGAGGAGTGA A29T | 0.00454 |
| TCGATGATGTG | 0.00893 |
| TCGATGATGTA | 0.00391 |
| CGAAGGAGTGA A29T | 0.00331 |
| ACAGGGATGTG A29T | 0.00794 |
| TCAGATGGTGA T23A | 0.0062 |
| TCAGGGATGTA | 0.00309 |
| TCAGGGATGTG | 0.00637 |
| ACAGTGTGTGA | 0.00188 |
| TCAGTGATTGA | 0.00169 |
| TCGATGGTTGA | 0.00257 |
| TCAGATGGGTT T23A G34A G35T T37G | 0.00134 |
| ACAGGGTGTGA | 0.00435 |
| ACGAGGTGTGA A29T | 0.00316 |
| ACGAGGTGTGA | 0.00342 |
| TCGATGGAGTT T23A G34T T37G | 0.001 |
| TCAGATGGGTA G34A | 0.00212 |
| TCAGATGGGTA G34T | 0.00105 |
| TCGATGGAGTT G34T T37G A40G | 0.000433 |

| Variant | fraction ligated |
| --- | --- |
| ACAGTGGAGTT G34T T37G A40G | 0.00141 |
| TCAGATTGTGA | 0.00132 |
| ACGAGGATGTA | 0.00292 |
| ACGAGGATGTG | 0.00917 |
| ACGAGGATGTG A29T | 0.0152 |
| TCAGTGGAGTA T23A G34T | 0.0212 |
| AGAAGGATTGA A29T | 0.00498 |
| TCAGTGATGTG | 0.00561 |
| TCAGTGATGTA | 0.000465 |
| TCAGTGTGTGA | 0.00218 |
| TCGAGGAGTGA T23A | 0.00431 |
| ACAGGATGTGA | 0.00342 |
| TCAGTGGAGTT G34T T37G A40G | 0.00151 |
| AGAAGATGTGA A29G | 0.00203 |
| AGAAGATGTGA A29T | 0.00448 |
| TCAGTATGTGA | 0.00458 |
| TGAAGGATGTG A29T | 0.00863 |
| TCGAGGAGTGA A29T | 0.00284 |
| TCGAGGTGTGA T23A A29T | 0.00169 |
| CGAAGATGTGA T23A A29G | 0.00107 |
| CGAAGATGTGA T23A A29T | 0.00299 |
| TCAGATGAGTT G34T T37G A40G | 0.00127 |
| TCGATGATTGA T23A | 0.00304 |
| ACGATGGTTGA | 0.00307 |

| Variant | fraction ligated |
| --- | --- |
| TCGATGAGTGA T23A | 0.00204 |
| TCAGTGTGTGA T23A | 0.00289 |
| AGAAGATGTGA T23A A29G | 0.00362 |
| AGAAGATGTGA T23A A29T | 0.00161 |
| ACAGATGGGTT G34A G35T T37G | 0.000596 |
| TCAGGGATTGA T23A | 0.000376 |
| TCAGATGGGTT T23A G34T T37G | 0.00101 |
| ACGAGGAGTGA | 0.000641 |
| ACAGGATGTGA A29T | 0.00171 |
| ACAGGATGTGA A29G | 0.00108 |
| ACGATGGTGTA | 0.00204 |
| ACGATGGTGTG | 0.00433 |
| TCAGGGATGTA A29T | 0.000605 |
| TCAGGGATGTA T23A A29T | 0.00445 |
| ACAGTGGTTGA | 0.00127 |
| TCAGTGGAGTT T23A G34T T37G A40G | 0.000501 |
| ACAGGGAGTGA A29T | 0.00347 |
| TCGAGGATGTA | 0.00168 |
| TCGAGGATGTG | 0.00804 |
| TCAGATGAGTA G34T | 0.00143 |
| TGAAGGTGTGA A29T | 0.00178 |
| TCGATGGAGTG T23A G34T | 0.25 |
| TCGAGATGTGA | 0.0048 |
| TCGATGGAGTA T23A G34T | 0.139 |

| Variant | fraction ligated |
| --- | --- |
| TGAAGATGTGA A29T | 0.00283 |
| TGAAGATGTGA A29G | 0.00286 |
| CGAAGGATGTA T23A A29T | 0.0054 |
| TCGAGGATGTG T23A A29T | 0.0128 |
| CGAAGATGTGA T23A A28T A29G | 0.00787 |
| TCAGATGTGTG T23A | 0.00627 |
| ACAGTGGGTGA | 0.00475 |
| TCAGTGGAGTG G34T | 0.0219 |
| ACGAGATGTGA A29T | 0.00193 |
| ACGAGATGTGA A29G | 0.00268 |
| ACAGTGGAGTT G34T T37G | 0.00159 |
| TCGATGGAGTG G34T | 0.253 |
| TCAGGATGTGA A29G | 0.00144 |
| TCAGGATGTGA A29T | 0.00155 |
| TCGAGGTGTGA | 0.00212 |
| ACAGATGAGTG G34T | 0.00398 |
| TCAGATGAGTT T23A G34T T37G | 0.00034 |
| AGAAGGATTGA T23A A29T | 0.00594 |
| TGAAGATGTGA T23A A29T | 0.00202 |
| TGAAGATGTGA T23A A29G | 0.00128 |
| ACAGGGATGTG | 0.00506 |
| ACAGGGATGTA | 0.00263 |
| AGAAGGATTGA T23C A29T | 0.00646 |
